The values that follow come from paper PMC9188544, “Mechanism of glycogen synthase inactivation and interaction with glycogenin” (Nature Communications, 2022).

Positions count from the first letter of the chain named. Numbers in names are those of the source.

Data set [1] deals with the molecule itself. Put plainly: negative-stain electron microscopy; purified co-expressed complex at 0.01-0.02 mg/mL in 25 mM HEPES pH 7.5, 150 mM NaCl, 1 mM TCEP, 10% glycerol; uranyl acetate stain; 2D classes and 3D map (C1, ~22 Å).
Data set [2] concerns the target T1, human glycogen synthase 1 (GS1) W18A (human, UniProt P13807 1-737, W18A, phosphorylation at S8, S641 and S641/S645 probed by immunoblot (Fig. 4b)).
T1 construct: glycogen synthase 1 (muscle), human, encoded by GYS1, cDNA NM 002103; also called GS W18A; not shown: His6, N-terminal, cleaved
T1 sequence (looked up): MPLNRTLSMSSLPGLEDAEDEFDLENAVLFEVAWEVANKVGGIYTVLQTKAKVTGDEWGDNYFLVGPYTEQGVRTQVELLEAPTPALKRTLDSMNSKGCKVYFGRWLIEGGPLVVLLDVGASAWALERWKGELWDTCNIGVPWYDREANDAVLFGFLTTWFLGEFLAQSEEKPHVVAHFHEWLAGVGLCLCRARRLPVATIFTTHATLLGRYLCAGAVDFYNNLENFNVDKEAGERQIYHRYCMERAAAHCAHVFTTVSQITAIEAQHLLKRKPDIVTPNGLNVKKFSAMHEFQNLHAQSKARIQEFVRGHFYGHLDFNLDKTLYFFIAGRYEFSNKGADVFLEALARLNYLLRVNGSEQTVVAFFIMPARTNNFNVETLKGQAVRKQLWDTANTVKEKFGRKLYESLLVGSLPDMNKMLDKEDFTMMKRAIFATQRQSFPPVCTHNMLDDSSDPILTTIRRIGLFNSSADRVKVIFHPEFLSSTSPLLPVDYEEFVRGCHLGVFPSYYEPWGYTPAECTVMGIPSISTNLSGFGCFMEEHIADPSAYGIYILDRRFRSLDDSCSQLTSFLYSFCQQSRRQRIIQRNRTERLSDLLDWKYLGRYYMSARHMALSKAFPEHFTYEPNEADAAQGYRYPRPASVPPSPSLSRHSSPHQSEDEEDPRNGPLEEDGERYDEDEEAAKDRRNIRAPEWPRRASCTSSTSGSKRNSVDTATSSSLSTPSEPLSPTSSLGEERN
In words: co-purification (HisTrap, TEV cleavage, Ni subtraction, Superdex200 gel filtration); GS WT or mutant co-expressed with GN(Y195F) in insect cells, both with N-terminal His6-TEV; lysate loaded on the HisTrap column. As to conditions: partners not purified.

In data set [3] the target is T2, human glycogen synthase 1 (GS1) R588A + R591A (human, UniProt P13807 1-737, R588A | R591A, phosphorylation at S8, S641 and S641/S645 probed by immunoblot (Fig. 4b)).
T2 construct: glycogen synthase 1 (muscle), human, encoded by GYS1, cDNA NM 002103; also called GS R588A + R591A double mutant; not shown: His6, N-terminal, cleaved
T2 sequence (looked up): T1 sequence (looked up) with A18W, R588A, R591A
The description is as above. As to conditions: partners not purified.

In data set [4] the target is T3, human glycogen synthase 1 (GS1) R603A (human, UniProt P13807 1-737, R603A, phosphorylation at S8, S641 and S641/S645 probed by immunoblot (Fig. 4b)).
T3 construct: glycogen synthase 1 (muscle), human, encoded by GYS1, cDNA NM 002103; also called GS R603A; not shown: His6, N-terminal, cleaved
T3 sequence (looked up): T1 sequence (looked up) with A18W, R603A
The description is as above. As to conditions: partners not purified.

B1: human glycogenin 1 (GN1) Y195F, full length, non-glucosylated (enzyme, UniProt P46976-2 1-333, looked up)
chain: MTDQAFVTLTTNDAYAKGALVLGSSLKQHRTTRRLVVLATPQVSDSMRKVLETVFDEVIMVDVLDSGDSAHLTLMKRPELGVTLTKLHCWSLTQYSKCVFMDADTLVLANIDDLFDREELSAAPDPGWPDCFNSGVFVYQPSVETYNQLLHLASEQGSFDGGDQGILNTFFSSWATTDIRKHLPFIYNLSSISIFSYLPAFKVFGASAKVVHFLGRVKPWNYTYDPKTKSVKSEAHDPNMTHPEFLILWWNIFTTNVLPLLQQFGLVKDTCSYVNVEDVSGAISHLSLGEIPAMAQPFVSSEERKERWEQGQADYMGADSFDNIKRKLDTYLQ
notes: glycogenin 1, human, encoded by GYG1, cDNA NM 001184720, full length; expected ~37.5 kDa; the C-terminal GN34 region is modelled as residues 300-332, which fits the 333-residue isoform; Cloned in pFL (with untagged GS) and in pFastBac (co-infected with His6-TEV-GS WT or mutants); Both carry an N-terminal His6 tag and a cleavable site, so they are treated as one molecule; also called GN(Y195F); GN …
B1: the “stoichiometry N” value in data set [1] came to 2. Also, the binding result in data set [2], in data set [3] and in data set [4] was “binds” in each case.
